Measurements reported in paper PMC9091222 (2022).

Target: unprocessed hMPV PreF trimer (wild-type hMPV F ectodomain trimer, strain B2, C-terminal GCN4 trimerization … (human metapneumovirus, strain B2))
Test: ELISA

B1: M4B06 IgG (antibody, V domains shown)
VH: EVQLLESGGGFVQPGGSLRLSCVVTGFTFSNYAMCWVRQAPGKGPEWVSGIGGSVGTTYYADSVKGRFTISRDNSKNTLYLQMSGLRAEDTARYYCAKVPSFFVFEDGFDMWGQGTVVTVSS
VL: QSVLTQPPSASGNPGQRVTISCYGSGSNIGNNYVHWFRQLPGTAPRLLIYNTDILVPGVPDRFSGSESGTSASLAISGLQSGDEADYFCAAWDDTLNGYVFGPGTTVTVL
EC50: 4.4 ng/mL
